Data published in patent US10821189B2, “CD38 ligand-drug conjugates for targeted cancer therapy” (THE METHODIST HOSPITAL SYSTEM, priority 2015, dated 2020).

T1: cellular CD38 proteins from MM cells (MM1S) (Homo sapiens, UniProt P28907)
T1 construct: cells were lysed in radioimmunoprecipitation assay (RIPA) buffer; endogenous in cells; host or cells: MM1S (CD38+ myeloma cell line), RIPA lysate
T1 sequence (P28907 1-300): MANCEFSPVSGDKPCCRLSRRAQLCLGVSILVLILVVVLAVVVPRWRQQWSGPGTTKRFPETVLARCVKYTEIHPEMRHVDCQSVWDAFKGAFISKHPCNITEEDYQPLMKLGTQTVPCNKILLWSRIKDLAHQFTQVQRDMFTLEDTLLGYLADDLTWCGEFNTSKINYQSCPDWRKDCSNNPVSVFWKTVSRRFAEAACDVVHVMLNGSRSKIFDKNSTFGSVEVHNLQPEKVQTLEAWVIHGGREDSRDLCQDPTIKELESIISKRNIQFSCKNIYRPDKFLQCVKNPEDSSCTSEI


What was measured:
[1] = DNase I digestion, release of free DOX; assay type: physicochemical
[2] = test system: orthotopic MM tumors (RPMI8226GL); assay: Orthotopic MM xenograft mouse model; assay type: in vivo, NOD/SCID IL2rg−/− mice; conditions: 0.5 mg/kg Dox, every other day, 13 treatments, observed up to 60 days
Description: 0.5×10^6 RPMI8226 GL cells were inoculated bilaterally into tibiae of 8- to 10-week-old NOD/SCID IL2rg−/− mice. Engraftment was monitored by weekly whole-body bioluminescence imaging on Xenogen IVIS imaging system, as previously reported (Wen, J., Feng, Y, Bjorklund, C. C., Wang, M., Orlowski, R. Z., Shi, Z. Z., Liao, B., O'Hare, J., Zu, Y, Schally, A. V., et al. 2011. Luteinizing Hormone-Releasing Hormone (LHRH)-I antagonist cetrorelix inhibits myeloma cell growth in vitro and in vivo. Mol Cancer Ther 10:148-158). Starting with day 6, mice were treated with free DOX (0.5 mg/kg) or an equivalent ApDC amount (6 mice per group) every other day (13 treatments total). Treatments were administered via the tail vein injection. Bioluminescence intensities representative of tumor mass were quantified by Living Image 3.1. Mice were euthanized by CO2 as they became moribund and their survival curves were plotted with SPSS 10 statistical software (SPSS Inc., Chicago, Ill., USA). All experiments were approved by the IACUC of the Houston Methodist Research Institute. Cells isolated from tumor tissues were examined under a fluorescence microscope for GFP expression. […]

control cells (HDLM2) [3] = assay: Intracellular DOX delivery by confocal microscopy, control cells; assay type: cell-based; conditions: HDLM2, 2 h treatment, equal molar DOX
Description: (§1) CD38+ MM and CD38− non-MM cells were incubated with free DOX (0.5 μmol/L final concentration) or ApDC (final equivalent concentration of aptamer was 0.1 μmol/L and DOX—0.5 μmol/L) for 1 hour. After washing, cells were resuspended with fresh medium, cultured for 2 hours, and then examined under a 40× objective (Olympus FV 1000 confocal microscope). DOX fluorescence was excited with a 5 mW, 488 nm Ar+ laser.

MM cells (RPMI8226) = assay: Intracellular DOX delivery by confocal microscopy, MM cells; assay type: cell-based, Human; conditions: RPMI8226, 2 h treatment, equal molar DOX
Description: as §1

[4] = DOX loading capacity by quenching of DOX fluorescence; assay type: physicochemical; conditions: components alone, FIG. 3C
Description: DOX was purchased from Thermo Fisher Scientific. Since DOX preferentially binds to double-stranded 5′-GC-3′ or 5′-CG-3′ repeats (Meng, L., Yang, L., Zhao, X., Zhang, L., Zhu, H., Liu, C., and Tan, W. 2012. Targeted delivery of chemotherapy agents using a liver cancer-specific aptamer. PLoS One 7:e33434), CG repeats were added to the 5′ end of Aptamer#1S to make the modified Aptamer#1S/CG-Cargo sequence. To determine the optimal molar ratio of aptamer to DOX, Apamer#1S/CG-Cargo sequence was heated at 95° C. for 5 minutes, cooled immediately on ice for 15 minutes, and then incubated with a fixed concentration of DOX (final concentration of DOX was 0.5 μmol/L) at various aptamer/DOX ratios ranging from 1:100 to 1:0.5. After 1 hour, the fluorescence (λEx=[…], λEm=[…]) was measured with a Synergy4 analyzer (BioTek, Winooski, Vt.). The minimal ratio at which the fluorescence of DOX was quenched to the maximal extent was determined as the optimal molar ratio (1:5 of aptamer to DOX) (29).

MM cells (MM1S) = assay: Cell binding assay of Cy3-labeled aptamers by flow cytometry, CD38+ MM cells; set-up: species or system Human; conditions: Cy3-labeled aptamer
Text: (§2) The top-20 enriched aptamer sequences were synthesized to include Cy3 modification and their affinity and specificity analyzed by flow cytometry. Aptamer#1S was derived by truncating Aptamer#1 based on ValFold software structural prediction (VALWAY Technology Center, NEC Soft Ltd., Tokyo, Japan) (Navani, N. K., Mok, W. K., and Yingfu, L. 2009. In vitro selection of protein-binding DNA aptamers as ligands for biosensing applications. Methods Mol Biol 504:399-415).
(§3) For aptamer staining, cells were stained with Cy3-labeled aptamer at 50 nmol/L (for flow cytometry analysis) or 100 nmol/L (for fluorescence microscopy, Olympus America, Melville, N.Y.) for 30 minutes. For 5(6)-Carboxyfluorescein diacetate N-hydroxysuccinimidyl ester (CFSE, Abcam, Cambridge, Mass.) staining, CD38-control cells were pre-stained with 0.5 μmol/L CFSE for 15 minutes according to the manufacturer's specifications and mixed with unlabeled CD38+MM cells, followed by Cy3-labeled aptamer staining for 30 minutes. For antibody staining, cultured cells or mononuclear cells freshly isolated from MM patient bone marrow samples were stained with antibody (BioLegend) as specified for 15 minutes.

cultured MM cells (MM1S) = assay: Fluorescence microscopy of a cell mixture stained with Cy3-labeled aptamer, MM cells; assay type: cell-based, Human
Description: as §3

[5] = target: T1, cellular CD38 proteins from MM cells (MM1S); assay: Precipitation of cell lysate proteins with biotin-labeled aptamers, western blot with anti-CD38 antibody; assay type: binding; conditions: MM1S lysates
Description: Immunoprecipitation with biotin-labeled aptamers was performed as previously reported (Shi, F., Cheng, Y. F., Wang, X. L., and Edge, A. S. 2010. Beta-catenin up-regulates Atohl expression in neural progenitor cells by interaction with an Atohl 3′ enhancer. J Biol Chem 285:392-400). In brief, cells were lysed in radioimmunoprecipitation assay (RIPA) buffer supplemented with Halt protease and phosphatase inhibitor cocktail (Thermo Fisher Scientific). Biotin-labeled aptamers were incubated with lysates for 2 hours at 4° C. in SELEX binding buffer supplemented with Halt protease and phosphatase inhibitor cocktail. Aptamer-bound proteins were collected with streptavidin agarose resin (Thermo Fisher Scientific) following 1 hour incubation at 4° C. Precipitated proteins were washed 5 times with SELEX washing buffer supplemented with Halt protease and phosphatase inhibitor cocktail, boiled in sample buffer, and supernatants were analyzed by western blotting using an anti-CD38 antibody (Cell Signaling Technology, Danvers, Mass.). […]

[6] = test system: xenograft tumors of lymphoma (K299GL); assay: Whole body fluorescent imaging of Cy5.5-labeled aptamer, control tumor; assay type: in vivo, NOD/SCID IL2rg−/− mice; conditions: control tumor in the same mouse
Description: (§4) In vitro biostability of Aptamer#1S was evaluated as previously described (49). In brief, the aptamer was incubated with human serum (Atlanta Biologicals) for 24 hours, and samples were collected at different times using phenol-chloroform extraction. The amount of undigested aptamer was visualized on a 5% agarose gel. In vivo experiments were done in accordance with the institutional guidelines for the use of laboratory animals. To determine the in vivo biostability of Aptamer#1S, 2×10^6 RPMI8226GL and K299GL cells were inoculated subcutaneously into 8- to 10-week-old NOD/SCID IL2rg−/− mice (Jackson Laboratory, Bar Harbor, Me.). Tumor growth was monitored by weekly whole-body bioluminescence imaging using Xenogen IVIS imaging system (PerkinElmer, Waltham, Mass.). Once tumors formed, 5 ng Cy5.5-labeled APTAMER#1S dissolved in PBS was injected via the tail vein and its signal was monitored on the IVIS system.

control cells (HDLM2) [7] = assay: Cell binding assay of Cy3-labeled aptamers by flow cytometry, CD38-negative control cells
Text: as §2, §3

[8] = test system: CD38 negative control cells (HDLM2); assay: Fluorescence microscopy of a cell mixture stained with Cy3-labeled aptamer, control cells; assay type: cell-based; conditions: control cells pre-stained in green
Description: as §3

[9] = Aptamer biostability in human serum, gel electrophoresis; assay type: in vitro ADME; conditions: human serum at 37° C.
Description: as §4

[10] = test system: CD38+ (RPMI8226 and NCI-H929) and CD38− (K299 and Jeko1) cell lines; assay: Cell binding in additional CD38+ and CD38− cell lines
Description: as §3

[11] = test system: xenograft tumors of MM (RPMI8226GL); assay: Whole body fluorescent imaging of Cy5.5-labeled aptamer, MM tumor; assay type: in vivo, NOD/SCID IL2rg−/− mice
Description: as §4

| Molecule | fluorescence change after DNase treatment [1] | survival of mice bearing orthotopic MM tumors [2] | intracellular DOX delivery into control cells (control cells (HDLM2) [3]) | intracellular DOX delivery into MM cells (MM cells (RPMI8226)) | drug loading capacity [4] | binding to MM cells (MM1S) (MM cells (MM1S)) | targeting of MM cells in cell mixture (cultured MM cells (MM1S); Cy3-labeled aptamer) | internalization into MM cells (cultured MM cells (MM1S); intracellular signals) | precipitation of cellular CD38 protein [5] | accumulation in control tumor [6] | binding to control cells (HDLM2) (control cells (HDLM2) [7]) | reaction with control cells in cell mixture [8] | time stable in human serum [9] [h] | affinity and specificity in additional MM and control cells [10] | accumulation in MM tumor ([11]; Cy5.5-labeled, systemic administration) | duration of specific imaging signals ([11]; post systemic administration) |
| --- | --- | --- | --- | --- | --- | --- | --- | --- | --- | --- | --- | --- | --- | --- | --- | --- |
| COc1cccc2c1C(=O)c1c(O)c3c(c(O)c1C2=O)C[C@@](O)(C(=O)CO)C[C@@H]3O[C@H]1C[C@H](N)[C@H](O)[C@H](C)O1 [free DOX, doxorubicin] | no change | no effect on mouse survival | non-specific intracellular drug accumulation | non-specific intracellular drug accumulation |  |  |  |  |  |  |  |  |  |  |  |  |
| Aptamer#1S: truncated 61-mer of Aptamer#1 inheriting the intact stem-loop structure, SEQ ID NO: 2 (nucleic acid, DNA, backbone and methylation of C not given here; further chemistry not fully specified) DNA: TCCAGAGTGACGCAGCAGCCAACGTGCTTTCTACCTTATTTTCCGTCACTCTCACTCTGGA |  |  |  |  | very limited drug loading capacity | specifically targeted MM cells | selectively targeted MM cells | internalized into the MM cells | specifically reacted to and immunoprecipitated cellular CD38 proteins | not in control tumor | did not react to CD38-negative control cells | did not react to control cells | ≥ 24 | further confirmed | selectively accumulated in MM tumor | up to 12 h |
